Results from paper PMC7714071, “Interaction of amyloid beta with humanin and acetylcholinesterase is modulated by ATP” (FEBS Open Bio, 2020).

How the values were obtained:
[1] = test system: Aβ in A549 cell-conditioned media; experiment: ELISA, oligomer versus total Aβ in A549 cell-conditioned media; format: cell-based, human; conditions: Fig. 8A
Method: (§1) Aβ ELISAs were carried out according to previous protocols for determining the oligomeric and monomeric concentrations of Aβ and as we recently reported. Briefly, total Aβ (monomers + oligomers) was measured by two‐site binding ELISAs using the capture 6E10 monoclonal antibody and 4G8‐conjugated biotin as the detection antibody, which recognizes a distinct epitope, then quantitated using streptavidin‐HRP.
(§2) Using the same samples, oligomerized Aβ was measured by a single‐site ELISA in which antibodies targeting the same primary sequence epitope were used for both capture (4G8) and detection (4G8‐biotin). Only oligomers are detected with this approach since the 4G8‐biotin antibody cannot bind to the captured monomer because the epitope is blocked by the 4G8 capture antibody. […]
(§3) Conditioned media were immunodepleted (ID) according to the methods previously described and our recently published report. […] The ID media were then carefully removed and analyzed for the presence of the target protein or peptide by ELISA. The same amount of protein (3 µL of 600 µg·mL^−1 total protein) of each sample was analyzed in the experiments. […]
(§4) Both epitopes recognized by the 6E10 and 4G8 antibodies have been previously shown to be exposed in Aβ aggregates. […] Fold change relative to controls using anti‐6E10 or anti‐4G8 antibodies incubated with 300 μL of the medium not incubated with cells was calculated. […]

[2] = test system: Aβ in H1299 cell-conditioned media; experiment: ELISA, oligomer versus total Aβ in H1299 cell-conditioned media; format: cell-based, human; conditions: AChE-immunodepleted H1299 media; Fig. 8B
Method: as §1, §2, §3, §4

[3] = test system: Aβ42; conditions: HN and AChE compared; cited from earlier work
Description: Humanin has been previously reported to bind amino acid residues 17–28 of Aβ (Fig. 1). AChE is also known to bind Aβ (1–16) and the Aβ (12–28) region (Fig. 1). Since the binding sites of AChE and HN on Aβ are overlapping, we previously investigated whether HN and AChE can simultaneously bind Aβ [79].

B1: acetylcholinesterase (protein)
chain: EGREDAELLVTVRGGRLRGIRLKTPGGPVSAFLGIPFAEPPMGPRRFLPPEPKQPWSGVVDATTFQSVCYQYVDTLYPGFEGTEMWNPNRELSEDCLYLNVWTPYPRPTSPTPVLVWIYGGGFYSGASSLDVYDGRFLVQAERTVLVSMNYRVGAFGFLALPGSREAPGNVGLLDQRLALQWVQENVAAFGGDPTSVTLFGESAGAASVGMHLLSPPSRGLFHRAVLQSGAPNGPWATVGMGEARRRATQLAHLVGCPPGGTGGNDTELVACLRTRPAQVLVNHEWHVLPQESVFRFSFVPVVDGDFLSDTPEALINAGDFHGLQVLVGVVKDEGSYFLVYGAPGFSKDNESLISRAEFLAGVRVGVPQVSDLAAEAVVLHYTDWLHPEDPARLREALSDVVGDHNVVCPVAQLAGRLAAQGARVYAYVFEHRASTLSWPLWMGVPHGYEIEFIFGIPLDPSRNYTAEEKIFAQRLMRYWANFARTGDPNEPRDPKAPQWPPYTAGAQQYVSLDLRPLEVRRGLRAQACAFWNRFLPKLLSATDTLDEAERQWKAEFHRWSSYMVHWKNQFDHYSKQDRCSDL
- oligomer, % of total Aβ remaining after AChE ID ([1]; AChE-immunodepleted A549 media (non-depleted ~ 63%)): ~ 47%
- total Aβ remaining after AChE ID ([1]; AChE-immunodepleted A549 media): ~ 57%
- effect of AChE ID on oligomer versus total Aβ [2]: No change
- affinity for Aβ42 [3]: comparable affinities
